These results are taken from article PMC10372576 (Proceedings of the National Academy of Sciences of the …, 2023).

The target of this assay is T1, S.c. Mon1–Ccz1 complex (wild type) (Saccharomyces cerevisiae, UniProt P53129;P38273).
T1 sequence 1: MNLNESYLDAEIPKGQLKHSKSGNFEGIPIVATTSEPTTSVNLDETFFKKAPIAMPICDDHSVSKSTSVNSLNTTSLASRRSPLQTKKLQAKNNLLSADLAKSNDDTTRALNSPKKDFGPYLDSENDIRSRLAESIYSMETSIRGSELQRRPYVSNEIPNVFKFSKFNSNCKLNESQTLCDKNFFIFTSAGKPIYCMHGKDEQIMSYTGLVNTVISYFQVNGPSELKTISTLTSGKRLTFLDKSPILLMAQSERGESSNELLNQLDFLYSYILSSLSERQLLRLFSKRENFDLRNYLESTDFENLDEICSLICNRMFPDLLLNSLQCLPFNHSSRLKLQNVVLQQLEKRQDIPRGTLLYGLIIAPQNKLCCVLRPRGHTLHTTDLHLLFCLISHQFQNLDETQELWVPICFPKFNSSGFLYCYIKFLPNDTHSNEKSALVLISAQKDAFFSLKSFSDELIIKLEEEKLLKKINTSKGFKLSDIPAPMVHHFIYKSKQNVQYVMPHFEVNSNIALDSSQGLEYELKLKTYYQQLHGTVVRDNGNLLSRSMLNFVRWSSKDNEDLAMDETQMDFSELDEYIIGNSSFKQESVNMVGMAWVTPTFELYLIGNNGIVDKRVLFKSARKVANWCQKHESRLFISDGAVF
T1 sequence 2: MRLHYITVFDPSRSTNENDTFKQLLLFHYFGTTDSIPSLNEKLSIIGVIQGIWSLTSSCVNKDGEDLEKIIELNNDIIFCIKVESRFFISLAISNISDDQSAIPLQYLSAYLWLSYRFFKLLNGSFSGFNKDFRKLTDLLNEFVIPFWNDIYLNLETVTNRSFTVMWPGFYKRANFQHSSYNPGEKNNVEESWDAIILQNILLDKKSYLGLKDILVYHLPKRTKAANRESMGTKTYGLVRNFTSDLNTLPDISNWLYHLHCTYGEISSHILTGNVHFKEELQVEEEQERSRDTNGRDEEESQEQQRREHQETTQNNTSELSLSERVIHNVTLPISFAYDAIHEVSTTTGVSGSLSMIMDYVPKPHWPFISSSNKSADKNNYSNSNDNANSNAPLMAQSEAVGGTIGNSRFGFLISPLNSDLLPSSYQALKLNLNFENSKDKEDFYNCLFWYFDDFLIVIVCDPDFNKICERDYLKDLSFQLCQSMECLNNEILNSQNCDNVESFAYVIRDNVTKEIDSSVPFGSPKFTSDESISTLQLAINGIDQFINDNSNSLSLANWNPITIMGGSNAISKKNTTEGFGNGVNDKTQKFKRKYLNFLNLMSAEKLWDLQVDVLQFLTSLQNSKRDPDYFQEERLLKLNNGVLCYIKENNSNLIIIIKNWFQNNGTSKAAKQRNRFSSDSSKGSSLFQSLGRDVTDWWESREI
Description: pull-down.

B1: GST-Ypt10 (natural protein)
chain: MEATIKVVLLGDSSVGKTSIVTRLKSGKFLAKHAATIGAAFITKTIEVPSNDSSTEKRIHMEIWDTAGQERYKSLVPMYYRDANIALIVFELGDVSSLQCAKTWFQDLQDRAQGTQVIIVGNKYDLVCEEHSGEVTIPAELQGLPYVAVSAKTGYNFDTLNKIIISLVPESQFKTLSKNNEQGNILEINKKKSGSGCIC
In the case of B1, the binding result was “binds”.
